Data taken from the DeepSol protein solubility set.

Assay: soluble on expression in E. coli; label from the status in PepcDB or PDB records
For “MSKKDVTKVVLDESDIPKQWYNILADMPNKPAPYFSSKTGKPVTLDELQAIFPMELIQQENSQERWIDIPEEVREMYRQWRPSPLYRARALEKHLGTPARIYYKYEGTNATGSHKLNTSLPQAYYNKIAGIKRLSTETGAGQWGSALSLACNHFGLECTVYMVKVSYEQKPYRRSFMKTFGAQVYASPTNLTSSGRAILEKDPDCTGSLGIAISEAVEDAATHDDTNYALGSVLNHVCLHQTIIGLEAKKQLEYLDEYPDVVFACCGGGSNFAGIAFPFLMDKFKGTKVRAVAVEPTACPTLTKGVYAYDYSDTGKIGPLAKMYTVGHDFVPAGIHAGGLRYHGVSPIVSQLYEDKLIEAKAYGQSSVFEAAVIFARTEGIVPAPESSHAIRAAIDEALLCKESGEAKVILFNLSGHGYFDMAAYDNYFSGKLSDVDYSEEEIARSMKNLPKVD”, the “soluble on expression in E. coli” value was “soluble”. For “WSGVMEWQEPRPEPNSRSKRWLPSHVYVNQGEILRTEQWPRKLYMQLIPQQLLTTLVPLFRNSRLVQFHFTKDLETLKSLCRIMDNGFAGCVHFSYKASCEIRVLMLLYSSEKKIFIGLIPHDQGNFVNGIRRVIANQQQVLQRNLEQEQQQRGMGG”, the “soluble on expression in E. coli” value was “not soluble”. With “MAEQQQEQQIRVRIPRKEENEILGIIEQMLGASRVRVRCLDGKTRLGRIPGRLKNRIWVREGDVVIVKPWEVQGDQKCDIIWRYTKTQVEWLKRKGYLDELL” the “soluble on expression in E. coli” value was “soluble”. With “MISVFHYHQPKIGNSESEYEDAFSYDVEKGLFAMADGSSESVFSNEWARSLVDTFVAGKYDMKIDDMVETAVGMWRSKLPWNNMKWFVKNKIARGSMATFLGLEVLDGSFRSVAVGDTCLFIITPEGMKSFPVKYPSEFGNTPKLIWTGNPLLRTRRSIKWANYMEGRISESDLLIMATDSLAHWMLSRAKQRPWQILIDHSENEGEFIGSLINSGEMKNDDVTFAIISLK” the “soluble on expression in E. coli” value was “not soluble”. With “MMVIGRLGAGKSFATKLRLVRRAMFDEDTVVIMLDPMRGFAGVNEALDGERITVGGRRGLNPLEIKPTPDHVLQEVDDIDPWGEQINWVMTFFATFFEHVADHPLGERNQTLRRAVQEAYEKRGITRDPETHTRDSPTIHDVITVLEEMVEDPEEYGYVTDGEQEAVQSDAQSLLKDLRPSFREGGELENLARPSEFDLDSKVIYLDLHQEEGTRGRAETSLMMQVLFNSVYERVKQTDKRVVFCIDEAHYLMNDAVSLDFLETAVRHSRHFDLSLEFITQTGGEFALTPEARTIANLCSLTVLHRVNEEKEKIAKWF” the “soluble on expression in E. coli” value was “not soluble”. With “MFGNHGQLFRLSVFRSADTAQQFLRQCYQQLQRDDAVQRSYANCYPFLYYLEHGQNFYAAAQQAPLSIKPVLLFYGMVQLLKACLLTVDPDYPESTSVLAHGVSARKRKKQGYEFLDDEVKIQKNGLFAHFSEKMFHVKQEAGEKFRMGTLLQRIGELHETFFLLSGRKKPLSLPVVHTASPPMLAIPKVILDHYHMSLSRFVQYLCEEGQGKRLSFAKEEGEFLYFHIESPLSPAGEGPFLFHLDGTLRIPVKKEKTFSLPEIHAHYLLLYNLSMISRYETEWWSELLHSYPSKAYTFILEFLSVSAEKVPLLLHEYLMRKFLG” the “soluble on expression in E. coli” value was “not soluble”. For “MAHHHHHHMLRRNIRLRKEYLYLKKVEDEKKKYAEKIKSIKESYDKNKKIRGDLKDEESELRKNMNLYDEKSFDRKVDDEYFFCGLENPRVLITTSRNPSSTLENFAKELKLIIPNSEKINRGSYFIKDILNFARKNNITDVIILHEYKGIPRNLIICHLPFGPTLFCTIKDCKMRCEFNEKIDNISLCTPHLIFHNFHSDLGKRIMNIFKYLFPPVTMRTNKRKMPKHNSQIVKDNKLNKNININTNNNDTNQMDQMDQMNKIKFVTHTTQDDEDNNDHLQIYFKNNEYLNLQKYENNRVIVFFNKNDIIYFRHYNWEKNQTNEIVLKEIGPRFSFVVYKINKETLDSLNEDYEYIYRPFMNSRKALLT”, the “soluble on expression in E. coli” value was “not soluble”. In the case of “MRGFSGQPLSDDDNYRIEKTQRNTIPERLHFSRERNMPIASIFGTRGYFVFSSEQSYDKFKQTNFNISTLDADGVGVPLFHIVQSYNVIGKITRSSPDFYIYKYVLQGVQDPPLYSDCKVICQDKVFRLCKILYCEIYAHQGFFETKYDFFYPSKTQPVKKYQIIKQSNMRDLYSTLDGMRFRWHVKFYSDHFRLMFLDEDRLNYSNSNQKERQKPDQGKSKAPDFVIGHYTRTFSDILPRSTSKCSNLIIGEHSKPDSLGITTVPDLTQEFACQGALIHYLLHIERERK”, the “soluble on expression in E. coli” value is reported as “soluble”. In the case of “MLEMLEYNHYQVQTHLENPTKYHIQQAQRQQVKQYLSTTLANKHANQVLSLPCPNQPGDHVMPPVPGSSAPNSPMAMLTLNSNCEKEGFYKFEEQNRAESECPGMNTHSRASCMQMDDVIDDIISLESSYNEEILGLMDPALQMANTLPVSGNLIDLYGNQGLPPPGLTISNSCPANLPNIKRELTESEARALAKERQKKDNHNLIERRRRFNINDRIKELGTLIPKSNDPDMRWNKGTILKASVDYIRKLQREQQRAKELENRQKKLEHANRHLLLRIQELEMQARAHGLSLIPSTGLCSPDLVNRIIKQEPVLENCSQDLLQHHADLTCTTTLDLTDGTITFNNNLGTGTEANQAYSVPTKMGSKLEDILMDDTLSPVGVTDPLLSSVSPGASKTSSRRSSMSMEETEHTC”, the “soluble on expression in E. coli” value is reported as “soluble”. With “MAHHHHHHMIFIHSLRLRHNLVSKNVERCTVFAFLDADFITAIRHKVRELKRAARRQPHRSALEVYSQERPTRHHVLPPPHYFSEKVGVDCCVLYIPEVEDFPLLDAFFFVNSNPVTLVGLRMATAGEHHTTASTVRQFTECLAAYFNGWEELSRDMSWETIYVQHADSTPMNDWQRCDVVNSDNVSKKENREIVAFWEEEVHQYLAVISSADARRGEAL” the “soluble on expression in E. coli” value was “not soluble”. With “MREIPLVSVALATYNGERYLRRQLDSVLAQTYRNIEIVVSDDCSRDGTVAILEEYRRAHGITFRVNERNLGFVRNFERALAGCRGEFIALSDQDDIWLPEKIETLVREIGPHSLIYTDALLIDGDDQPLPGSLVEVSGVRPVSGTCFEYFVCNNCVTGCTAMLRRDLLATALPIPEAETYHDWWLAVAASRRNGVVYHAAKLTEYRQHAHNYTGANVRAGLPARIAAHLMGKTAAEKRGYYELLANRARRYRAMADRLNLTPAERSFLEEIGEYAESLLSGGNRMKTFALALKYRETLFPAAGRWEKLLFVFSKLIAARAILEHHHHHH” the “soluble on expression in E. coli” value was “soluble”. For “YNPLNSVEDSTNRRDTVLQNMVAAGYIDKNQETKAAEVDMTSQLHDKYEGKISDYRYPSYFDAVVNEAVSKYNLTEEEIVNNGY”, the “soluble on expression in E. coli” value was “not soluble”. For “MAYKHILIAVDLSPESKVLVEKAVSMARPYNAKISLIHVDVNYSDLYTGLIDVNLGDMQKRISEETHHALTELSTNAGYPITETLSGSGDLGQVLVDAIKKYDMDLVVCGHHQDFWSKLMSSARQLINTVHVDMLIVPLRDEEE”, the “soluble on expression in E. coli” value was “not soluble”. With “MHHHHHHSSGRENLYFQGMAKERRRAVLELLQRPGNARCADCGAPDPDWASYTLGVFICLSCSGIHRNIPQVSKVKSVRLDAWEEAQVEFMASHGNDAARARFESKVPSFYYRPTPSDCQLLREQWIRAKYERQEFIYPEKQEPYSAGYREGFLWKRGRDNGQFLSRKFVLTEREGALKYFNRNDAKEPKAVMKIEHLNATFQPAKIGHPHGLQVTYLKDNSTRNIFIYHEDGKEIVDWFNALRAARFHYLQVAFPGASDADLVPKLSRNYLKEGYMEKTGPKQTEGFRKRWFTMDDRRLMYFKDPLDAFARGEVFIGSKESGYTVLHGFPPSTQGHHWPHGITIVTPDRKFLFACETESDQREWVAAFQKAVDRPMLPQEYAVEAHFKHKP” the “soluble on expression in E. coli” value was “soluble”. For “MGSDKIHHHHHHMQQNTNVDPQEIAKFERMAETWWDLNGEFKPLHLLNPLRLNYIDQTAGGIFGKKVLDVGCGGGILSESMARIGAIVDGLDMGEEPLEVARLHALETGVSINYVKNTAEAHREDHREYYDVVTCMEMLEHVPDPQSVIQACCDMVKPGGFVFFSTINRNVRSFVETIIGAEYLLKMLPIGTHDHNKFIKPSELIDLVDNTELICKDALGITYNPLTGIFKYTSKVDVNYMIATQKVD”, the “soluble on expression in E. coli” value was “not soluble”. With “MDPSENVFKYETAYDLLVRLGAERLFLRTCLSILDPVLELHPGKCYEIDGDLGVGKTQICYSFAAKFLQTKKTAKMGWIGATPLRTDHLLLHIEHFGNQTNEDILDRIVCKRVEKIAELQDSLTRFLDTINLQLVIVENIDAILHDTVYHKEMGRSMQSDVVERIRKLTKLEITVILTNHITHWRGYPAPALGAFWSSQINNRFFIEKRNDDSDIRIVSAMKGEQDDGMNRIEFKIGDRGLKAVE” the “soluble on expression in E. coli” value was “not soluble”.
